Measurements reported in the Human Domainome abundance scans (Beltran et al. 2025).
± gives the uncertainty stated by the source.

B1: Histone-lysine N-methyltransferase SETD2, residues 2382 to 2430; numbered along this chain, Q9BYW2 (parent)
chain: SPPKPKTIVLPPNWKTARDPEGKIYYYHVITRQTQWDPPTWESPGDDAS
B2: Unconventional myosin-Ie, residues 1051 to 1108; numbered along this chain, Q12965 (parent)
chain: PQVPQCKALYAYDAQDTDELSFNANDIIDIIKEDPSGWWTGRLRGKQGLFPNNYVTKI

Variants of: B1
Assay: abundance fitness (aPCA) (normalised: wild type 0, dead -1); higher = more abundant; growth selection in yeast, the domain comes from the species named
Conditions: Homo sapiens

Variant | abundance fitness
S49R | -0.158 ± 0.11
S49T | -0.013 ± 0.045
S49V | -0.62 ± 0.19
S49Y | -0.194 ± 0.067

Variants of: B2
Assay: as above
Conditions: Homo sapiens

Variant | abundance fitness
W39R | -0.902 ± 0.12
K32W | -0.205 ± 0.069
Q15P | -0.484 ± 0.18
G45L | -0.416 ± 0.038
Y12R | -0.107 ± 0.037
L43E | -0.701 ± 0.068
N53H | -0.012 ± 0.078
E19N | -0.277 ± 0.093
P35Y | -0.266 ± 0.1
L20C | -0.708 ± 0.19
T17E | -0.272 ± 0.09
Y10K | -0.043 ± 0.058
A24D | -0.477 ± 0.15
I30H | -0.765 ± 0.21
S36G | -0.031 ± 0.047
L20D | -0.893 ± 0.17
G45M | -0.161 ± 0.082
D16W | -0.231 ± 0.049
S21D | -0.217 ± 0.036
I27E | -0.432 ± 0.058
D18S | 0.009 ± 0.046
T40M | 0.052 ± 0.066
D16K | -0.069 ± 0.07
A11M | -0.149 ± 0.037
P1V | 0.027 ± 0.053
T17K | -0.18 ± 0.082
N23C | -0.062 ± 0.033

Variant | abundance fitness
I30S | -0.992 ± 0.13
N53A | -0.147 ± 0.056
L49H | -0.317 ± 0.12
D34G | -0.118 ± 0.063
A24H | -0.06 ± 0.12
I27S | -0.655 ± 0.087
P35L | -0.29 ± 0.065
T56I | -0.261 ± 0.13
W39H | -0.732 ± 0.22
Q2I | -0.176 ± 0.16
A8T | -0.544 ± 0.12
Y12C | -0.968 ± 0.086
K46F | -0.364 ± 0.18
D34A | -0.031 ± 0.051
I31C | -0.089 ± 0.064
I31D | -0.359 ± 0.073
N52K | -0.284 ± 0.14
Y10I | -0.364 ± 0.091
I27N | -0.233 ± 0.093
S21F | -0.938 ± 0.27
I30Q | -0.891 ± 0.19
D13G | -0.304 ± 0.056
L49G | -0.16 ± 0.046
P1A | 0.03 ± 0.074
G41Q | -0.767 ± 0.23
E19P | -0.925 ± 0.063
K57Q | -0.315 ± 0.048

Variant | abundance fitness
Q2P | -0.062 ± 0.069
K32M | -0.1 ± 0.074
T17F | -0.287 ± 0.097
Y54V | -0.145 ± 0.047
K57V | -0.257 ± 0.06
D13R | -0.165 ± 0.04
T56K | -0.165 ± 0.088
R44M | -0.179 ± 0.057
C6R | -0.818 ± 0.051
D16P | -0.798 ± 0.076
K32T | -0.173 ± 0.074
S36N | -0.381 ± 0.12
Y10G | -0.309 ± 0.033
Q5A | -0.245 ± 0.064
K32N | -0.009 ± 0.073
D26G | -0.986 ± 0.094
D26Y | -0.776 ± 0.19
K7I | 0.004 ± 0.075
E19G | -0.018 ± 0.04
L43F | 0.014 ± 0.07
L20I | -0.05 ± 0.087
G37R | -0.574 ± 0.053
L49R | 0.09 ± 0.05
L49W | -0.157 ± 0.062
D29P | -1.03 ± 0.41
E33L | -0.343 ± 0.052
